# System: Escherichia coli TOP10
# Assay: shrunken log2 fold change of peptide-encoding DNA abundance (4.5 h post-induction vs induction); higher = less antimicrobial activity (less host growth inhibition)
# Settings: time post-induction: 4.5 h; library: site-saturation at positions 5, 18, 19, 20
# 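Further: peptides expressed intracellularly from a pBAD plasmid library in pooled LB shake-flask culture, induced with 0.3% L-arabinose, DNA abundance read by NGS, three biological replicates, DESeq2 with apeglm shrinkage.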
row,Sequence,shrunken log2 fold change
1,RRIRPRPPRLPRPRPRPNDQPRP,1.93
2,RRIRARPPRLPRPRPRPWMNPRP,-0.121
3,RRIRDRPPRLPRPRPRPTHYPRP,-0.103
4,RRIRRRPPRLPRPRPRPHVDPRP,0.027
5,RRIRFRPPRLPRPRPRPTAMPRP,-0.105
6,RRIRNRPPRLPRPRPRPSPFPRP,-0.287
7,RRIRTRPPRLPRPRPRPTVCPRP,-0.509
8,RRIRRRPPRLPRPRPRPCCDPRP,0.583
9,RRIRTRPPRLPRPRPRPLGKPRP,0.0663
10,RRIRERPPRLPRPRPRPLEGPRP,-0.363
11,RRIRLRPPRLPRPRPRPPMEPRP,0.347
12,RRIRVRPPRLPRPRPRPWMPPRP,-0.199
13,RRIRTRPPRLPRPRPRPTTDPRP,-0.0867
14,RRIRMRPPRLPRPRPRPSFLPRP,-0.121
15,RRIRHRPPRLPRPRPRPHAMPRP,-0.00419
16,RRIRGRPPRLPRPRPRPSYYPRP,0.118
17,RRIRNRPPRLPRPRPRPFSGPRP,-0.277
18,RRIRRRPPRLPRPRPRPVWKPRP,0.147
19,RRIRPRPPRLPRPRPRPSKFPRP,-0.494
20,RRIRSRPPRLPRPRPRPGGAPRP,0.574
21,RRIRSRPPRLPRPRPRPHFTPRP,-0.256
22,RRIRMRPPRLPRPRPRPWKDPRP,-0.0578
23,RRIRMRPPRLPRPRPRPNRRPRP,0.179
24,RRIRCRPPRLPRPRPRPQTHPRP,0.0541
25,RRIRNRPPRLPRPRPRPEKPPRP,-0.233

row,Sequence,shrunken log2 fold change
1,RRIRTRPPRLPRPRPRPTKFPRP,-0.638
2,RRIRDRPPRLPRPRPRPATLPRP,-0.146
3,RRIRNRPPRLPRPRPRPTKIPRP,-0.245
4,RRIRCRPPRLPRPRPRPCDGPRP,0.0624
5,RRIRFRPPRLPRPRPRPVGQPRP,-0.0211
6,RRIRTRPPRLPRPRPRPEADPRP,0.0868
7,RRIRIRPPRLPRPRPRPRQLPRP,-0.27
8,RRIRHRPPRLPRPRPRPHLDPRP,-0.214
9,RRIRARPPRLPRPRPRPHIPPRP,-0.671
10,RRIRTRPPRLPRPRPRPWLGPRP,-0.00306
11,RRIRMRPPRLPRPRPRPFCYPRP,-0.117
12,RRIRNRPPRLPRPRPRPIHCPRP,-0.244
13,RRIRLRPPRLPRPRPRPHWIPRP,-0.162
14,RRIRCRPPRLPRPRPRPYIDPRP,-1.39
15,RRIRWRPPRLPRPRPRPFYIPRP,-0.632
16,RRIRRRPPRLPRPRPRPESAPRP,0.493
17,RRIRYRPPRLPRPRPRPNDGPRP,-0.0117
18,RRIRVRPPRLPRPRPRPKLWPRP,0.127
19,RRIRSRPPRLPRPRPRPMHHPRP,-0.0364
20,RRIRQRPPRLPRPRPRPQRWPRP,0.178
21,RRIRARPPRLPRPRPRPYPVPRP,-0.191
22,RRIRYRPPRLPRPRPRPPQFPRP,-0.213
23,RRIRIRPPRLPRPRPRPFHIPRP,-0.127
24,RRIRKRPPRLPRPRPRPQPYPRP,-0.157
25,RRIRPRPPRLPRPRPRPLVVPRP,-0.0898

row,Sequence,shrunken log2 fold change
1,RRIRRRPPRLPRPRPRPMKQPRP,0.134
2,RRIRQRPPRLPRPRPRPMNLPRP,-0.169
3,RRIRFRPPRLPRPRPRPHLRPRP,-0.19
4,RRIRHRPPRLPRPRPRPGVDPRP,-0.213
5,RRIRWRPPRLPRPRPRPFNCPRP,-0.118
6,RRIRCRPPRLPRPRPRPYFNPRP,-1.04
7,RRIRKRPPRLPRPRPRPHDRPRP,0.29
8,RRIRWRPPRLPRPRPRPTPCPRP,0.212
9,RRIRKRPPRLPRPRPRPFCDPRP,0.144
10,RRIRVRPPRLPRPRPRPQQWPRP,0.0185
11,RRIRGRPPRLPRPRPRPKRSPRP,0.301
12,RRIRYRPPRLPRPRPRPNRWPRP,0.135
13,RRIRKRPPRLPRPRPRPQDDPRP,0.00685
14,RRIRWRPPRLPRPRPRPWNQPRP,-0.067
15,RRIRCRPPRLPRPRPRPMSEPRP,-0.0508
16,RRIRWRPPRLPRPRPRPNNLPRP,-0.513
17,RRIRTRPPRLPRPRPRPLVIPRP,-0.44
18,RRIRRRPPRLPRPRPRPHHYPRP,-0.168
19,RRIRGRPPRLPRPRPRPMFYPRP,1.07
20,RRIRARPPRLPRPRPRPKEGPRP,-0.00115
21,RRIRFRPPRLPRPRPRPQDFPRP,-0.143
22,RRIRARPPRLPRPRPRPGCAPRP,0.947
23,RRIRIRPPRLPRPRPRPHDFPRP,0.0334
24,RRIRDRPPRLPRPRPRPGYKPRP,-0.121
25,RRIRGRPPRLPRPRPRPNKMPRP,0.162

row,Sequence,shrunken log2 fold change
1,RRIRRRPPRLPRPRPRPTAMPRP,0.78
2,RRIRERPPRLPRPRPRPEFQPRP,-0.0353
3,RRIRHRPPRLPRPRPRPASMPRP,0.0822
4,RRIRYRPPRLPRPRPRPLRQPRP,0.0273
5,RRIRHRPPRLPRPRPRPRGMPRP,0.207
6,RRIRDRPPRLPRPRPRPAFAPRP,0.928
7,RRIRRRPPRLPRPRPRPFVMPRP,-0.0623
8,RRIRWRPPRLPRPRPRPCEIPRP,-0.243
9,RRIRYRPPRLPRPRPRPFDMPRP,-0.195
10,RRIRTRPPRLPRPRPRPFRDPRP,-0.205
11,RRIRIRPPRLPRPRPRPVMTPRP,-0.166
12,RRIRRRPPRLPRPRPRPRAGPRP,0.638
13,RRIRDRPPRLPRPRPRPCFKPRP,-0.0968
14,RRIRNRPPRLPRPRPRPWKDPRP,-0.00136
15,RRIRNRPPRLPRPRPRPHFNPRP,-0.608
16,RRIRRRPPRLPRPRPRPGKIPRP,0.343
17,RRIRARPPRLPRPRPRPGKTPRP,0.312
18,RRIRQRPPRLPRPRPRPAEPPRP,0.157
19,RRIRARPPRLPRPRPRPYMNPRP,-0.337
20,RRIRVRPPRLPRPRPRPKVCPRP,-0.0503
21,RRIRFRPPRLPRPRPRPVVGPRP,0.362
22,RRIRIRPPRLPRPRPRPMDKPRP,-0.448
23,RRIRIRPPRLPRPRPRPNLEPRP,-0.114
24,RRIRVRPPRLPRPRPRPWFTPRP,0.0469
25,RRIRARPPRLPRPRPRPMSCPRP,-0.114

row,Sequence,shrunken log2 fold change
1,RRIRYRPPRLPRPRPRPCWDPRP,-0.0738
2,RRIRCRPPRLPRPRPRPCTMPRP,-0.725
3,RRIRCRPPRLPRPRPRPRWEPRP,0.342
4,RRIRCRPPRLPRPRPRPDQDPRP,0.0433
5,RRIRCRPPRLPRPRPRPAPYPRP,0.0992
6,RRIRYRPPRLPRPRPRPIRKPRP,-0.0667
7,RRIRHRPPRLPRPRPRPFWVPRP,-0.00136
8,RRIRARPPRLPRPRPRPTRIPRP,2.82
9,RRIRNRPPRLPRPRPRPWREPRP,0.262
10,RRIRNRPPRLPRPRPRPFPNPRP,-0.33
11,RRIRMRPPRLPRPRPRPNVMPRP,-0.108
12,RRIRTRPPRLPRPRPRPMLFPRP,0.177
13,RRIRKRPPRLPRPRPRPNKVPRP,-0.00759
14,RRIRGRPPRLPRPRPRPIQEPRP,0.416
15,RRIRTRPPRLPRPRPRPVFGPRP,0.227
16,RRIRFRPPRLPRPRPRPETHPRP,-0.0779
17,RRIRNRPPRLPRPRPRPRLIPRP,0.0319
18,RRIRIRPPRLPRPRPRPFCYPRP,-0.514
19,RRIRFRPPRLPRPRPRPLTCPRP,-0.182
20,RRIRWRPPRLPRPRPRPRVIPRP,-0.233
21,RRIRDRPPRLPRPRPRPLGDPRP,0.0385
22,RRIRKRPPRLPRPRPRPRHGPRP,-0.0248
23,RRIRDRPPRLPRPRPRPKPEPRP,0.0415
24,RRIRSRPPRLPRPRPRPNCSPRP,-0.0305
25,RRIRWRPPRLPRPRPRPPCDPRP,0.255

row,Sequence,shrunken log2 fold change
1,RRIRARPPRLPRPRPRPRYTPRP,-0.0676
2,RRIRCRPPRLPRPRPRPGSWPRP,0.439
3,RRIRFRPPRLPRPRPRPCMQPRP,-0.163
4,RRIRCRPPRLPRPRPRPKVMPRP,-0.184
5,RRIRSRPPRLPRPRPRPSQMPRP,-0.161
6,RRIRVRPPRLPRPRPRPGFRPRP,0.205
7,RRIRARPPRLPRPRPRPEPRPRP,0.679
8,RRIRPRPPRLPRPRPRPGGHPRP,0.372
9,RRIRHRPPRLPRPRPRPTFHPRP,-0.326
10,RRIRCRPPRLPRPRPRPVRHPRP,0.403
11,RRIRQRPPRLPRPRPRPCAEPRP,-0.135
12,RRIRVRPPRLPRPRPRPRPFPRP,0.351
13,RRIRHRPPRLPRPRPRPEERPRP,-0.0858
14,RRIRTRPPRLPRPRPRPNWTPRP,0.00155
15,RRIRMRPPRLPRPRPRPTLIPRP,0.00162
16,RRIRIRPPRLPRPRPRPFRAPRP,-0.332
17,RRIRYRPPRLPRPRPRPYQLPRP,-0.00146
18,RRIRMRPPRLPRPRPRPTVHPRP,0.102
19,RRIRWRPPRLPRPRPRPWYRPRP,-0.174
20,RRIRWRPPRLPRPRPRPLLVPRP,0.172
21,RRIRFRPPRLPRPRPRPSGFPRP,-0.207
22,RRIRPRPPRLPRPRPRPWDDPRP,-0.144
23,RRIRFRPPRLPRPRPRPVEEPRP,-0.177
24,RRIRIRPPRLPRPRPRPVSGPRP,0.0231
25,RRIRLRPPRLPRPRPRPPRNPRP,0.356
